Laboratory results: article PMC10651892, “A supramolecular system mimicking the infection process of an enveloped virus through membrane fusion” (Scientific Reports, 2023)
Where no end group is shown, it is not given here. TMR‑5‑maleimide = tetramethylrhodamine-5-maleimide

B1: TMR-β-annulus-EE peptide (peptide)
peptide: C(TMR‑5‑maleimide)INHVGGTGGAIMAPVAVTRQLVGSEE
notes: Cys added at the N-terminus to carry the TMR dye; 24-residue β-annulus peptide involved in the formation of the dodecahedral internal skeleton of tomato bushy stunt virus (capsid protein); two anionic amino acids (Glu) added at the C-terminal side by design; also called Cys-β-annulus-EE peptide modified with TMR-maleimide; source: synthetic peptide (Fmoc solid-phase method; Michael addition of …)
B2: β-annulus-EE peptide (peptide)
peptide: INHVGGTGGAIMAPVAVTRQLVGSEE
notes: 24-residue β-annulus peptide involved in the formation of the dodecahedral internal skeleton of tomato bushy stunt virus (capsid protein); two anionic amino acids (Glu) added at the C-terminal side by design; Self-assembles into the anionic artificial viral capsid; also called 26-residue β-annulus-EE peptide; source: synthetic peptide (Fmoc solid-phase method, purified by reverse-phase HPLC)

Assays:
[1] = target: B2; experiment: dynamic light scattering; 90 μM β-annulus-EE peptide and 10 μM TMR-β-annulus-EE peptide co-assembled (molar ratio 9:1) in 10 mM phosphate buffer (pH 7.0) containing 1% DMSO, 25 °C; settings: both partners purified
[2] = target: the molecule itself; experiment: as above

Binder	binding result [1]	binding result [2]
B1	binds	
B2		binds
